Assay results published in the supplement of paper PMC9876800.

Tested on: peptide library, one residue held at a place counted from the S/T acceptor
Assay: relative phosphorylation of the sub-library (ratio to the mean residue at this position); higher = residue favoured
Summary of the method: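 In 384-well plates, purified recombinant kinases (human or orthologue constructs) were incubated for 90 min under kinase-specific conditions with 50 μM biotinylated degenerate peptide sub-libraries and 50 μM ATP spiked with γ-32P-ATP. Each sub-library fixed a single residue at one position around a central Ser/Thr. Relative sub-library phosphorylation, measured by phosphorimaging and densitometry of streptavidin membrane spots, is given as a ratio to the mean residue at that position.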

Chain of TRPM6, construct: aa1699-end, human (Q9BX84 1699-2022, looked up): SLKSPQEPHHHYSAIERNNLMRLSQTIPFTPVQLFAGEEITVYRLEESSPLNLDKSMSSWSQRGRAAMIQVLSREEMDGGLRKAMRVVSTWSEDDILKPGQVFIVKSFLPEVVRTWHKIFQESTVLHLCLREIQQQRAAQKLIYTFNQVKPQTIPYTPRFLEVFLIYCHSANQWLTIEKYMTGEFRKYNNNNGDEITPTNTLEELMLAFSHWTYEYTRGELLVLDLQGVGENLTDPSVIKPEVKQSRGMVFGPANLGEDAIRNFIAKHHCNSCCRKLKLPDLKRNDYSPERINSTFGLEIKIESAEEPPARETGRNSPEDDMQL
Chain of DAPK2, construct: Full length, human (Q9UIK4 whole entry, looked up): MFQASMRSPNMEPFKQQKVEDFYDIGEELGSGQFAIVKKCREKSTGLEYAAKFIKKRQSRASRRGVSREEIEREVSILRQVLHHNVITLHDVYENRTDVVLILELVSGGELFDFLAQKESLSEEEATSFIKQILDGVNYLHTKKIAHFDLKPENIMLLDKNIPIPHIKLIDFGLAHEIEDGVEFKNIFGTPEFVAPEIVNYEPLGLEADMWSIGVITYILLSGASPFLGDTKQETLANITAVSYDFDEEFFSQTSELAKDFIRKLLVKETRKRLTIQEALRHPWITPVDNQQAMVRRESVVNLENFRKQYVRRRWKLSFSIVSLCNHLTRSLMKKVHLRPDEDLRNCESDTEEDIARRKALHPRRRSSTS
Chain of MYLK, construct: aa1425-1771, human (Q15746 1425-1771, looked up): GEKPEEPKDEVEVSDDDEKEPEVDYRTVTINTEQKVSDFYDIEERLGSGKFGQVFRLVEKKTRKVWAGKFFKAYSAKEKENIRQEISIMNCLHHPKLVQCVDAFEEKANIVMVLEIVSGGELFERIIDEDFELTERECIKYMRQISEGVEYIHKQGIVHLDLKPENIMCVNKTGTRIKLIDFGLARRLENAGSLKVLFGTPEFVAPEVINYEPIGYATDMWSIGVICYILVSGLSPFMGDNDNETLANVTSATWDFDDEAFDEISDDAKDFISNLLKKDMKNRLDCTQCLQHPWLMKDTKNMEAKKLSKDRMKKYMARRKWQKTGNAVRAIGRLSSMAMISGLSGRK

TRPM6, construct: aa1699-end, human (from UniProt Q9BX84)
relative phosphorylation
Settings	at +1	at +2	at +3	at +4	at -1	at -2	at -3	at -4	at -5
A fixed	0.996	1.48	2.44	0.962	0.767	0.976	0.898	1.12	1.29
D fixed	0.396	0.307	0.4	0.983	0.669	0.615	0.898	1	1.12
E fixed	0.732	0.319	0.381	0.993	0.577	0.678	0.928	1.11	1.22
F fixed	0.824	1.31	0.776	0.816	0.504	1.03	0.829	0.991	1.02
G fixed	0.509	0.788	1.09	1.33	0.421	1.36	1.06	1.35	1.43
H fixed	1.08	0.995	0.992	1.01	1.24	0.768	1.08	0.911	1.11
I fixed	1.19	0.651	0.394	0.755	0.46	0.519	0.825	0.819	0.69
K fixed	2.27	0.855	2.27	1.27	4.26	0.678	1.18	0.887	1.12
L fixed	0.909	0.92	0.633	0.705	0.673	0.772	0.928	0.81	0.696
M fixed	0.816	1.38	0.708	0.88	0.576	1.17	0.838	0.914	0.767
N fixed	0.685	0.66	1.04	0.945	1.08	0.731	1.34	0.931	1
P fixed	0.376	2.29	0.963	1.3	0.964	1.74	1.5	1.35	0.904
Q fixed	1.36	0.956	0.827	1.27	0.892	0.773	1.14	1.08	1.07
R fixed	1.96	0.942	1.83	1.02	2.16	0.609	0.963	0.901	0.928
V fixed	0.903	0.562	0.539	0.805	0.51	0.609	0.737	0.789	0.747
W fixed	0.873	1.28	0.679	1.01	0.464	3.23	1.09	1.16	0.996
Y fixed	1.12	1.3	1.04	0.948	0.78	0.746	0.774	0.875	0.884
pThr fixed	0.646	0.552	0.592	1.04	0.7	0.837	1.1	1.2	1.21
pTyr fixed	1.15	0.701	0.772	0.915	0.729	0.729	0.959	1.02	0.79

DAPK2, construct: Full length, human (from UniProt Q9UIK4)
relative phosphorylation
Settings	at +1	at +2	at +3	at +4	at -1	at -2	at -3	at -4	at -5
A fixed	0.947	0.886	0.931	0.893	0.907	1.2	0.902	1.03	1.03
D fixed	1.24	0.825	0.801	0.816	0.878	0.624	0.608	0.797	0.77
E fixed	1.3	0.846	0.813	0.758	0.71	0.591	0.558	0.795	0.703
F fixed	0.985	1.1	0.998	1.22	0.902	0.704	0.778	1.03	1.02
G fixed	1.02	0.895	1.01	0.933	0.983	0.869	0.846	1.02	1.08
H fixed	0.861	0.962	0.951	1.22	0.992	1.08	0.869	0.967	0.926
I fixed	0.909	1.02	1.6	1.02	0.854	0.645	0.697	0.888	0.955
K fixed	0.739	0.891	0.842	0.837	1.22	1.23	1.59	1.12	1.09
L fixed	0.863	1.34	1.27	0.995	1.2	0.725	0.754	0.949	1.06
M fixed	1.04	1.34	0.968	0.882	1.03	0.739	0.758	0.964	0.99
N fixed	1.25	0.913	0.852	0.912	1.25	0.855	0.666	0.97	0.839
P fixed	0.736	1.04	0.983	1.09	1.11	0.775	0.881	1.04	1.08
Q fixed	1.77	0.983	0.878	0.927	0.995	0.838	0.716	0.915	0.869
R fixed	0.838	1.05	1	0.958	1.21	3.71	3.95	1.45	1.47
V fixed	0.91	0.948	1.15	0.973	0.916	0.688	0.674	0.894	0.92
W fixed	0.79	0.943	1	1.39	0.856	0.961	0.898	1.06	0.98
Y fixed	0.797	1.02	0.948	1.18	0.994	0.765	0.861	1.11	1.23
pThr fixed	1.74	1.06	0.929	0.994	0.74	0.649	0.685	0.818	0.831
pTyr fixed	1.15	1.02	1.16	1.04	0.969	0.696	0.682	0.811	0.827

MYLK, construct: aa1425-1771, human (from UniProt Q15746)
relative phosphorylation
Settings	at +1	at +2	at +3	at +4	at -1	at -2	at -3	at -4	at -5
A fixed	0.785	0.75	0.611	0.755	0.803	0.95	0.781	0.743	0.704
D fixed	0.578	0.935	0.68	0.835	0.963	0.38	0.392	0.516	0.472
E fixed	0.631	0.874	0.625	0.747	0.696	0.378	0.403	0.586	0.483
F fixed	0.917	1.27	1.37	1.15	0.87	0.584	0.653	1.45	1.21
G fixed	0.781	0.599	0.713	0.906	0.933	0.631	0.586	0.819	0.737
H fixed	0.706	0.914	0.744	1.28	1.06	1.01	0.876	0.94	0.916
I fixed	1.49	0.99	2.08	0.946	0.789	0.499	0.7	1.06	1.06
K fixed	1.36	1.19	1.03	1.18	1.27	1.93	1.63	1.41	1.21
L fixed	1.01	1.09	1.65	0.952	1.13	0.505	0.619	0.898	1.08
M fixed	1.51	1.26	1.21	0.946	1.17	0.607	0.66	1.05	1.04
N fixed	0.873	0.86	0.771	1.03	1.55	0.834	0.591	0.723	0.677
P fixed	0.615	0.675	0.637	1.01	0.896	0.465	0.556	0.651	0.722
Q fixed	1.32	1.02	0.718	0.987	1.08	1.07	0.777	0.895	0.794
R fixed	1.59	1.56	1.06	1.22	1.49	5.45	5.91	1.86	1.89
V fixed	1.34	0.93	1.14	0.814	0.791	0.521	0.566	1	0.882
W fixed	0.676	0.749	0.907	1.27	0.636	0.594	0.611	1.03	0.875
Y fixed	0.819	1.33	1.05	0.96	0.874	0.587	0.69	1.35	2.24
pThr fixed	1.48	1.39	0.785	1.03	0.744	0.528	0.543	0.678	0.667
pTyr fixed	0.795	1.19	0.925	0.965	1.07	0.51	0.784	0.669	0.772
